Data taken from patent US20180112194A1, “MUTANT HUMAN DEOXYCYTIDINE KINASE” (Centre National De La Recherche Scientifique, priority 2015, published 2018).
Where two headings read alike, the source gives them in different places.

Key:
Messa10K cells [1] = conditions: for efficiency of SIN vectors versus wt vectors / plateau of maximum mortality: gemcitabine; for efficiency of SIN vectors versus wt vectors: Messa 10K, data not shown
Method: Methods to measure sensitivity of a cell, such as a eukaryotic cell are known to the skilled in the art. In one example, cells were transduced with a vector comprising for example the mutant “M36” or the wild-type hdCK. Therefore, 1×10^6 cells were contacted with 1 ml of 1:5 diluted viral vectors rescued from the isolated clones. Transduced cells were selected, for example, by adding puromycin 24 h after transduction using 0.6 μg/ml to HEK-293T cells, 0.6 μg/ml to HEK-293T-CD4^+ cells, 0.5 μg/ml to Messa10K cells. The transduced cells were then for example seeded at 5,000 cells per well in a 96-well plate and grown overnight at 37° C. Typically, two rows were used for each population. 12 h after seeding, increasing concentrations of for example gemcitabine (0-400 nM or […]), or araC (0-10 mM) were added to each well and left in culture for further 72 h. Cell viability was measured by MTT test (CellTiter 96 Non-Radioactive Cell Proliferation Assay, Promega) and the number of living cells in each well was evaluated by measuring the OD at 570 nm. For each population, the fraction of living cells was calculated as OD570 concentration X Gem/OD570 concentration 0 Gem, to estimate the sensitivity of the population to the prodrug.
Tests of sensitivity to anticancer drugs. Cells were seeded at 5000 cells per well in a 96-well plate and grown overnight at 37° C. Two rows were used for each population. 12 h after seeding, increasing concentrations of Gemcitabine (0-400 nM or 0-100 μM), or AraC (0-10 mM) were added to each well and left in culture for further 72 h. Cell viability was measured by MTT test (CellTiter 96 Non-Radioactive Cell Proliferation Assay, Promega) and the number of living cells in each well was evaluated by measuring the OD at 570 nm. For each population, the fraction of alive cells was calculated as OD570 concentration X Gem/OD570 concentration 0 Gem, to estimate the sensitivity of the population to the prodrug. Tests of sensitivity to antiviral drugs. Viral vectors were generated by transfection of HEK-293T cells with 10 μg of pCMVAR8.91 plasmid, 5 μg of pHCMV-G plasmid, and 10 μg of genomic plasmid SDY-dCK (described in Rossolillo et al. 2012) encoding either for the wild type sequence of the human dCK or the M36 variant. Transduction was performed on 1×10^6 HEK-293T-CD4+ cells with viral vectors. Transduced cells were selected in the presence of 0.6 μg/ml of puromycin, added 24 h after transduction. 50 to 200 individual puromycin-resistant clones were pooled and expanded obtaining the polyclonal wt-dCK cell population (wtdCK-pcP, for wt dCK polyclonal population) and the […] cell population (M36-pcP). Vectors for challenging infection in the presence of antiviral drugs were generated by transfection with 10 μg of pTopo plasmid encoding for the HIV envelope ADA (ref, plus Hamoudi 2013), 5 μg of pHCMV-G plasmid, and 10 μg of genomic plasmid SDY-Luc, which is a variant of the pSDY plasmid encoding for the firefly luciferase. These viruses were used to transduce 1×10^6 HEK-293T-CD4+-wtdCK or HEK-293T-CD4+-M36 cells. Viral infection was then monitored 48 hours after transduction. For this the medium was removed, the cells were washed twice in PBS, lysed, centrifuged, and the supernatant was used to measure luciferase activity according to the manufacturer's protocol (Promega, Fitchburg, Wis., USA) with a Glomax luminometer (Promega, Fitchburg, Wis., USA). Western blot analyses. Messa10K cell lines expressing either the wt dCK or M36, both in the context of a proviral DNA with functional LTR or with an inactivated LTR were lysed in 1×RIPA buffer, and 30, 60, 120 μg of total protein (evaluated by Bradford) for each cell type and loaded on a 12% bis-tricine gel (Invitrogen).

Messa10K cells [2] = conditions: cited from earlier work
human dCK [3] = target: T1, human dCK (Homo sapiens, UniProt P27707, E171K/E247K/L249M); conditions: cited from earlier work
T1 construct: His tag (C, cleaved yes); made in house; host or cells: E. coli BL21 DE3 pLysE (pET14b)

[4] = system: HIV-derived vectors in HEK 293T/CD4+ cells; assay: Tests of sensitivity to antiviral drugs: infection of hdCK-transduced cells by luciferase-encoding HIV-derived vectors; assay type: cell-based; conditions: luciferase 48 hours after infection
Method: (§1) Tests of sensitivity to anticancer drugs. […] Two rows were used for each population. […] Tests of sensitivity to antiviral drugs. […] Viral infection was then monitored 48 hours after transduction. […] Western blot analyses. […] Production and purification of recombinant dCK proteins. […] Phosphorylation tests in vitro. […] ATP was 4 mM. All experiments were performed in triplicate.
Firstly HEK 293T/CD4^+ cells were transduced at a low MOI of by the vector encoding the M36 variant and selection of the successfully transduced cells was performed using puromycin. The selected cell line was then transduced with lentiviral vectors, as described in Materials and Methods, encoding the luciferase gene and luciferase levels ere measured 48 hours after infection. A comparison with the level of luciferase detected in the parallel infection of control HEK 293T/CD4^+ cells expressing as a transgene the wt dCK gene was performed and the data plotted.

human dCK [5] = target: T2, human dCK (Homo sapiens, UniProt P27707, E171K/E247K/L249M/S169N); assay: Phosphorylation tests in vitro (NADH-based assay) with purified recombinant dCK proteins; assay type: biochemical; conditions: for Km compared to wt dCK / Kcat relative to wt dCK: FIG. 9A
T2 construct: His tag (C, cleaved yes); made in house; host or cells: E. coli BL21 DE3 pLysE (pET14b)
Method: (§2) Methods to qualitatively and/or quantitatively evaluate phosphorylation of a compound, such as a nucleoside compound, are known to the skilled in the art. In one example, the efficiency of phosphorylation of a substrate such as the natural substrate deoxycytidine, or the prodrugs gemcitabine and AraC, is measured for example with the purified wild-type hdCK and the mutant “M36” in typically a NADH-based assay as described in (Agarwal K C. et al. 1978 Methods Enzymol 51: 483-490). Accordingly, the enzymes are typically assayed at, for example, room temperature at a concentration of 0.45 μM for dC, 0.3 μM for Gemcitabine, and 0.3 for AraC. dC is typically used at concentrations of 5 to 50 μM, Gemcitabine at concentrations of 20 μM to 1 mM, and araC is typically used at concentrations of 20μM to 0.5 mM. ATP is used typically at 4 mM.
as §1
(§3) To characterise its biochemical properties M36 and, as a control, the wt dCK protein, were produced as recombinant, C-ter His tagged proteins in E. coli, purified and tested for their efficiency of phosphorylation in vitro. As it was the case for the G12 mutant (Rossolillo et al. 2012) also for M36 the substitutions present in the mutant led to a decrease in the Vmax of phosphorylation as function of the concentration of substrate, for both dC and for gemcitabine, but while the decrease is dramatic for the dC it is only modest for gemcitabine (FIGS. 8A-B).

human dCK [6] = assay: as above; assay type: biochemical; conditions: FIG. 9B, G12 values from Rossolillo et al. 2012
Method: as §2, §1, §3

T2 sequence (P27707 whole entry S169N/E171K/E247K/L249M): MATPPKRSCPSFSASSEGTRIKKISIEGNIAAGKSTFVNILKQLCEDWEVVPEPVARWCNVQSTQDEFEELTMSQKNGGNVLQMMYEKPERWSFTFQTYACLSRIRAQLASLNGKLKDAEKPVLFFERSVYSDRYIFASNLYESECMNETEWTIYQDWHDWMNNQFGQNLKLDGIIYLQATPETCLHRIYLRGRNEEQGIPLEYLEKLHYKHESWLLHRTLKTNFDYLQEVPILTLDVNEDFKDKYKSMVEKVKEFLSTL
T1 sequence (P27707 whole entry E171K/E247K/L249M): as the sequence (P27707 whole entry S169N/E171K/E247K/L249M) above, with N169S counted along it

In the case of “G12: hdCK mutant comprising three mutations, Glu171Lys, Glu247Lys and Leu249Met, described in Rossolillo et al. 2012 and WO2011/058081”, the “efficiency of SIN vectors versus wt vectors” value (Messa10K cells [1]) is given as “more efficient”, the sensitization to gemcitabine (Messa10K cells [2]; cells originally resistant to gemcitabine (Messa10K)) is given as 300 fold and the “sensitization effect relative to the one induced with the wild-type enzyme” value (Messa10K cells [2]; gemcitabine, Messa10K) is given as 60 times. For the same substance, the “ability to phosphorylate dC with respect to the wild type enzyme” value (human dCK [3]; substrate dC) was “almost complete loss of ability” and the “efficiency of phosphorylation of gemcitabine with respect to the wild type enzyme” value (human dCK [3]; substrate gemcitabine) was “almost unaltered”.
With “M36: mutant human deoxycytidine kinase (hdCK) with mutations S169N, E171K, E247K and L249M; delivered as lentiviral transgene or recombinant protein” the “sensitisation to AraC with respect to control cells expressing exogenous wt dCK” value (Messa10K cells [1]; AraC, FIG. 7B) was “strong sensitisation”, the “sensitisation phenotype to gemcitabine compared to G12” value (Messa10K cells [1]; Messa10K, FIG. 1 and 2) was “further improved sensitisation phenotype” and the sensitization to gemcitabine (Messa10K cells [1]; cells originally resistant to gemcitabine) was 900 fold. The “sensitization of cells to cytarabine (AraC), factor” value (Messa10K cells [1]; cytarabine (AraC)) was 10,000, the “sensitisation of Messa 10K cells to fludarabine” value (Messa10K cells [1]; fludarabine, FIG. 7A) was “no significant sensitisation” and the “efficiency of SIN vectors versus wt vectors” value (Messa10K cells [1]) was “more efficient”. The “plateau of maximum mortality” value (Messa10K cells [1]; SIN vector (inactivated LTR)) was 80%, the “plateau of maximum mortality” value (Messa10K cells [1]; wt LTR vector) was 60% and the “lower infectivity versus cells expressing wt dCK” value ([4]; 3TC, FIG. 6) was ~2 fold. For the same substance, the “resistance to infection versus cells expressing wt dCK” value ([4]; ddC, FIG. 5) was “no significant increase in resistance”, the “Km compared to wt dCK” value (human dCK [5]; natural substrate dC) was “reversed” and the “reduction of the Vmax of phosphorylation compared to wt dCK” value (human dCK [5]; substrate AraC, FIG. 8C) was “very modest reduction”. For the same substance, the “Kcat relative to wt dCK” value (human dCK [5]; substrate AraC) was “approximately 50%”, the “Km compared to wt dCK” value (human dCK [5]; substrate AraC) was “increased” and the “decrease in the Vmax of phosphorylation compared to wt dCK” value (human dCK [5]; substrate dC, FIG. 8A) was “dramatic”. The “Kcat relative to wt dCK” value (human dCK [5]; substrate dC) was “approximately 50%”, the “decrease in the Vmax of phosphorylation compared to wt dCK” value (human dCK [5]; substrate gemcitabine, FIG. 8B) was “only modest” and the “Kcat relative to wt dCK” value (human dCK [5]; substrate gemcitabine) was “approximately 50%”. The “Km compared to wt dCK” value (human dCK [5]; substrate gemcitabine) was “increased”, the “increase in Kcat M36 vs G12, factor” value (human dCK [6]; natural substrate dC) was 9.5 and the “increase in Km M36 vs G12, factor” value (human dCK [6]; natural substrate dC) was 3.5. The “ratio of Kcat M36 vs G12” value (human dCK [6]; substrate gemcitabine) was 1 and the “ratio of Km M36 vs G12” value (human dCK [6]; substrate gemcitabine) was 1.
